# Experimental data published in the DeepSol protein solubility set.
# Test: soluble on expression in E. coli; label from the status in PepcDB or PDB records
row,Sequence,soluble on expression in E. coli
1,MGSDKIHHHHHHMSVECFVTGGSGFVGQHLLAGLTAQGHKTWVLMRSPGNIERLKEQVGQLGGNPEYIHAVEGDISQEGLGLSEADKERVTSAAVFFHLAAQFSWGLTPERARTVNVQGALSVARLAASQRIRLLMVGGFMLQNLNHLASIGVDTQCPENTNWPAVYARVGGYEGSKLESHFAVIRYMQDADADYTIVHPATVCGHSENGHILDGQPLAELIRNLAQGRFKAIPGSASHWLPLVSVDYLVKMITCVAFDPSMANRQVLALYERTPNLQGMLGQIADTLKVKAPHRHIPIGLLRSILTIPGLATRLAISAESLNFIQTQRFDMGNSRQLERKYQFTHPDMTQALENTVRYVNGSLMKKSKSEGAGQRG,not soluble
2,MGSDKIHHHHHHMSDFSPIAWTEGMFLRPQHMQQQERFLQHQQARTAKNNNPLAWGVVSYEVNYGLLPLGQFGLDRIDCVFPDNTLACLPEQSPLPTAITVPAGTLDQLVYLVLPVAKSNGMNISSSEQNQITRYSYEDHNIVDTSVGSDAMEVLQVAKLDCRLKLQSEDRSGYVSIAIARVIDVSEEGVIRLDKKFIPACIGIEHIKTLMNMTTEVTGMINQRAEAIAGRLSQSQGTSSSIADFLMLQLLNKYQPIFEHYGVVNHIHPELLFRTLISFSGELSTFSSPNKRPPKFPVYQHDNLTYVFSNTMVIVNHGLSSVLEQSATELILEKTKFGVYFSTIADKSMLDNAEFILAVKANVPHDELRQRLPSQIKIGSVETIRELVNNQLPGIGISNLPVAPRQVPYHAGYHYFQLDKNNSHWIKLKSSGGVAMHISGAYPELQIELWAVSI,not soluble
3,MNRRDFLQFGLRGIVVAGLGKGFYNTTSEQVEIVRTSVKIRNLPAALQGLKIGLLTDLHASFVVSSETIRSAGRLLMAEKPDLIVMTGDYISGSTRFLSGSVGQFKKEYLSKCIDALSGLKAPLGIYGVLGNHDFWSGPESVKAICEAFTRQMGMVWLRNSSVEIRRGRGSLHLLGVDDYWEPSCSLAAACKGVDTDGIKILLSHNPDINDEIFLLRERIDLVLSGHTHGGQVVVPFLGQPVMPSKFGQKYRAGLVRDGDRQTYISRGVGCLLAPIRLNCPPEATVLTLTLEHHHHHH,soluble
4,MPLNTDFFKPSKNKEKFVLVFLKRGYPSHVDLLTKIAEKVKMKSIGYKIPNAEYLERVSDEELRDLYSSALVTLYPIDFEYYGYIPVESMAAGTPVIAFRYSGGPAETIVDGETGWLASDEEEFYRLTIKVYNEGYPEDTSVKSRKRAEEFSIQN,soluble
5,ITKAINYMAKRRIGALLTIERDTGMGDYIETGIPLNAKVSSELLINIFIPNTPLHDGAVIMKNNEIAAAACYLPLSESPFISKELGTRHRAAVGISEVTDSLTIIVSEETGGVSVAKNGD,not soluble
6,AIAITGETEPACVEDASQLAEQRNGAPVMEAGCAAVPVEANATKRGYWRQRTLHSWFIGRKPQRTCIAVDIDEVLAFFVPELCAFHNKRYGTRLQATDFHSYRFAEVWGGTDTDAIRKVHEFFRTPAFQELQPIPGAKQVLQSRLARFRFVVVTSRQLVIEQETRAWLDKHFSGIFEAIYLGNQWALHPNGEHGTGVGSAAQEPQRLFANRRRKSQVCKACGAAVLIDDLPHNLLDCSENGVFGVLFDFQGQYGWSKSPAFESKDIAVVHSWEAVGELLDRL,soluble
7,GGGGGGMNLRRRGIVVSFHSNMVTVEDEETGERILCKLRGKFRLQNLKIYVGDRVEYTPDETGSGVIENVLHRKNLLTKPHVANVDQVILVVTVKMPETSTYIIDKFLVLAEKNELETVMVINKMDLYDEDDLRKVRELEEIYSGLYPIVKTSAKTGMGIEELKEYLKGKISTMAGLSGVGKSSLLNAINPGLKLRVSEVSEKLQRGRHTTTTAQLLKFDFGGYVVDTPGFANLEINDIEPEELKHYFKEFGDKQCFFSDCNHVDEPECGVKEAVENGEIAESRYENYVKMFYELLGRRKK,soluble
8,GPGSMVEHTGLKYQFFIRAASVDWDARDRESMAAGLCPLYQLLHCDVEKLQFVVYCFGEGEAYMFEKAIQTVTKYVDEEKCIMAVRSLRQRETKGHIIYDVAKKETQPAQFFFLLSYAWGMIAVSFPKVTNYDKWEKQKGAARIIMNCPAEMDVKAMCAWMKRGLDPDEQTKYWKMVETHMEKVGPIPRYIFDANKFLAHFAATEDALDGINPRDGESHFTHGGVRLWYSEDPSHKLVRVVRTRGEVGAEVFLNAPISVCLGRRIPLYFWKRDE,not soluble
9,VTGPGSPPLAWTELERLVAAGDVDTVIVAFTDMQGRLAGKRISGRHFVDDIATRGVECCSYLLAVDVDLNTVPGYAMASWDTGYGDMVMTPDLSTLRLIPWLPGTALVIADLVWADGSEVAVSPRSILRRQLDRLKARGLVADVATELEFIVFDQPYRQAWASGYRGLTPASDYNIDYAILASSRMEPLLRDIRLGMAGAGLRFEAVKGECNMGQQEIGFRYDEALVTCDNHAIYKNGAKEIADQHGKSLTFMAKYDEREGNSCHIHVSLRGTDGSAVFADSNGPHGMSSMFRSFVAGQLATLREFTLCYAPTINSYKRFADSSFAPTALAWGLDNRTCALRVVGHGQNIRVECRVPGGDVNQYLAVAALIAGGLYGIERGLQLPEPCVGNAYQGADVERLPVTLADAAVLFEDSALVREAFGEDVVAHYLNNARVELAAFNAAVTDWERIRGFERL,not soluble
10,MAHHHHHHMSQQQWTPDQRRQQIAEMLRNKGVICRDFLFTGRCSRSPTCPYMHVANGETRPVPWSVCTFFTQGKCLRDGCSFFHGTQAQLEELHASGAPVYRPQDYMKIAVPPAEYLNADGSIATHLSIAAVPMTPALHVVHGPTVSHENAVNSFQPVLVMQPNSQAIAPTMFASQGRTAHSTPSHFAFYANAPITSQMPTHSAATVLQPTLHTVQPTTFYQAANALLAQPQQHFAPVPQLNTPQQHQLTQQALGSRVYFHIQPH,not soluble
11,MTECLQTKKSNCKNCYKCIRHCPVKSLKFTDGQAHIVRDECVLCGECYVVCPQNAKQIRSDVEKAKQLVLKYDVYASIAPSFVAWFHNKSIHDMEQALIKLGFKGADETAKGAYIVKKQYEKMIEEKKSKIIISSCCHTVNTLIQRHYTGAIQYLADVVSPMLAHAQMLKKEHKGAKVVFIGPCISKKDEAEKYKGYVELVLTFDELDEWLKSENITIESNRGSSKEGRTRSFPVSGGIISSMDKDLGYHYMVVDGMENCINALENIERGEIDNCFIEMSACRGSCINGPPARRKSNNIVGAILAVNKNTGAKDFSVPMPEPEKLKKEFRFEGVHKIMPGGTAIEEILKKMGKTSIEHELNCGSCGYDTCRDKAVAVLNGKADLTMCLPYLKEKAESFSDAIIKNTPNGVIVLNEDLEIQQINNSAKRILNLSPSTDLLGSPVSRILDPIDYILALREGKNCYYKRKYFAEYKKYVDETIIYDKEYHVIIIIMRDVTEEEKIKALKNKQSEAAIEIADKVVEKQMRVVQEIALLLGETAAETKIALTKLKETMEDE,not soluble
12,MGHHHHHHSHMVTHSKFPAAGMSRPLDTSLRLKTFSSKSEYQLVVNAVRKLQESGFYWSAVTGGEANLLLSAEPAGTFLIRDSSDQRHFFALSVKTQSGTKNLRIQCEGGSFSLQSDPRSTQPVPRFDCVLKLVYHYMPPPGAPSFPSPPTEPSSEVPEQPSAQPLPGSPPRRAYYIYSGGEKIPLVLSRPLSSNVATLQHLCRKTVNGHLDSYEKVTQLPGPIREFLDQYDAPL,not soluble
13,MAHHHHHHMTVEDQVDHLLAPQRDGQENIQQRQEFNGFVHWGLLHGAHMVLEENQDTKRAHEFVNRYMRDIDLFEKWLEHPKVRAHIQKKFGIDMSAKFDKLMALTMAMYTRSKIQVYEDDPAGALKSLTASMSFITEGADLKKERHRKALGAVLVARGMIHCKLKSFHRADDDLTRALAFVKANRSATLYQLRAEAREALGHIDEARADEERAAQIWEEAEVITPGMDGAPRKFVT,soluble
14,FSSALTSKDAARLADETDNIAEALRAAETEGVALQDMLQAYLPANGMVRVVNGDQKAVMTITKEKAYKDFPLSFHSGETADVRKPDGKLFAEAAVPVIWTDGQVVSLQLVERLENTEESLFLLK,not soluble
15,MDGQADGMFIDRAEDARKQEITEQYLNFLDNQADTFHYRQKIVKMMNDGESRLVMNLDEIREILPERAEGLLTQSVLEMNCLQSALQMAINRSDVQAVVKTGFHVGFEGTFGERHVNPRTLKSSYLGNLVCCEGIVTKCSTVRQKLLTSVHYCPATNKVLEKKFADFTMLDTAVTNNNYPTEDENKNPLETEFGHSVYKDHQTFTIQELPESAPAGQLPRAVDCVADLDLADRVKPGDRVRIIGVFRVLPNKQNGVSSGSFRSIIIINHIQMLSKEVIPNFEPQDVKDVRKISKSRNPFELLARSLAPSICGHEETKKALLCLLLGGMEKILNNGSRLRGDINVLLIGDPSVAKSQLLRYVLRMAPRAITTTGRGSSGVGLTAAVTTDPDSGERRLEAGAMVLADRGVVCIDEFDKMSDIDRTAIHEVMEQGRVTISKAGIHAKLNARCSVLAAANPVYGRYNPFKSPMENIGMQDSLLSRFDLIFVLLDEHDADKDANVAEHVLKLHTYRTQGEADGTVLPMGGGVETISTINMETKKASSSIYEENTQWAGIQDTKILTMDFMRKYIHLARSVQPKLTDEATEYISEVYADIRSFDITKTDQERTMPVTARQLETLIRLSTAIAKARFSKKVEREDTEKAYNLLHFACFKEKPKARQEYEKKKRAPRIDGDDDEDQSDNEDMATSEEPQSSSVPTAATPRRGVRRRAEDDDSQDSMMDTTIGESQPTAKKARTGPAAIGVDRYKELRKYVRKAFDDIGSTDDMVELQIITDSVQTQAGSHKFTEDELKAGYEQLENDNAAMIAEDKITLI,not soluble
16,MVPCWNHGNITRSKAEELLSRTGKDGSFLVRASESISRAYALCVLYRNCVYTYRILPNEDDKFTVQASEGVSMRFFTKLDQLIEFYKKENMGLVTHLQYPVPLEEEDTGDDPEEDTVESVVSPPELPPRNIPLTASSCEAKEVPFSNENPRATETSRPSLSETLFQRLQSMDTSGLPEEHLKAIQDYLSTQLAQDSEFVKTGSSSLPHLKKLTTLLCKELYGEVIRTLPSLESLQRLFDQQLSPGLRPRPQVKG,soluble
17,MSCRFYQHKFPEVEDVVMVNVRSIQEMGAYVSLLEYNNIEGMIHLSELSRRRIRSINKLIRIGRNECVKVIRVDKEKGYIDLSKRRVSPEEAIKCEDKFTKSKTVYSILRHVAEVLEYTKDEQLESLFQRTAWVFDDKYKRPGYGAYDAFKHAVSDPSILDSLDLNEDEREVLINNINRRLTPQAVKIRADIEVACYGYEGIDAVKEALRAGLNCSTENMPIKINLIAPPRYVMTTTTLERTEGLSVLSQAMAVIKEKIEEKRGVFNVQMEPKVVTDTDETELARQMERLERENAEVDGDLEHHHHHH,soluble
18,MSLSKKTQINLKIERAKEEDLPKLVDLYLRAYKGLEEYAYTHPKDVKSYLKWLWNRDKEGIFLAKVDGKIVGFGAGDANWFSRREGKRVGAIHEIVVDPEYQGHGVGTALMNTILEYFKKKGLDTAELWVGDENYKAINFYKKFGFQESGRYNYWIRMIKGIITITTDPNSSSVDKLAAALEHHHHHH,soluble
19,MSVNFSPCVLIPCYNHGAMMPGVLARLKPFNLPCIVVDDGSDATTQQQLDSLLAEQPGVTLIRLAENAGKGAAVMRGLQAAADAGFSHAVQVDADGQHAIEDIPKLLALAEQQPAALISGQPIYDDSIPRSRLYGRWVTHVWVWIETLSLQLKDSMCGFRVYPVAPTLQLAKHATIGKRMDFDTEVMVRLYWQGNTSYFVPTRVTYPLDGLSHFDALKDNVRISLMHTRLFFGMLPRIPSLLMRRSSCHWARQSEVKGLWGMRLMLLVWRLLGRTAFSALLYPVVGVYWLTASRARKASQDWLARVRQHQPQAAKLNSYQHFLRFGNAMLDKIASWRGELQPGRDVLFAPGAEAALDVRDPRGKLLLASHLGDVEVCRALAKIQGYKTINALVFSENAQRFKQIMQEMAPQAGINLMPVTDIGPETAILLKEKLDNGEWVAIVGDRIAVNPQRGGDWRVCWSSFMGQPAPFPQGPFILASILRCPVNLIFALRQHGKLHIHCESFADPLQLPRGERQQALQNAIDHYAARLEHYALQSPLDWFNFFDFWQLPEIQDKE,not soluble
